The source of these data is the supplement of paper PMC9732359.

± gives the uncertainty stated by the source.

A short description of this series: protein stability index of a GFP-peptide fusion (yeast GPS) (PSI 1-4); higher = more stable; sorted into four equal gates, so the index is relative within each strain. Put shortly: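 Tiled yeast protein peptides of 17 residues were each joined downstream of GFP, on plasmids that also express Cherry. The pooled library was maintained in yeast, and mid-log cultures in leucine-free medium were sorted into four equal gates on the GFP/Cherry ratio. Plasmids from every gate were amplified by PCR and sequenced on Illumina, with barcodes linking reads to strains. The protein stability index of a peptide is its gate-number-weighted read frequency summed over the gates.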

As to NLEFDSTNHPDYDVSKK [SRP14], the protein stability index runs as follows: (doa10∆) 3.15 ± 0.092; (pdr5∆) 3.25 ± 0.12; (san1∆) 3.2 ± 0.048; (ubr1∆) 3.15 ± 0.065.

Regarding NLENMSIQDTSTVAKNV [YCG1], the protein stability index runs as follows: (doa10∆) 3.01 ± 0.052; (pdr5∆) 3.12 ± 0.051; (san1∆) 3.1 ± 0.04; (ubr1∆) 3.21 ± 0.041.

For NLFGATANANKPAFSFG [YJL041W/NSP1], the protein stability index came out at 3.05 ± 0.096 (doa10∆), 3.18 ± 0.081 (pdr5∆), 3.14 ± 0.074 (san1∆) and 3.12 ± 0.057 (ubr1∆).

As to NLKQANNVAYGKKRFRV [SMC4], the protein stability index reads like this: (doa10∆) 2.41 ± 0.11; (pdr5∆) 2.62 ± 0.077; (san1∆) 2.09 ± 0.095; (ubr1∆) 2.31 ± 0.054.

On to NLPILKNHFRKHWQERV [RPL13A], for which the protein stability index was found to be 2.33 ± 0.085 (doa10∆), 2.83 ± 0.073 (pdr5∆), 2.31 ± 0.1 (san1∆) and 1.87 ± 0.089 (ubr1∆).

In the case of NLRHERNSLETKLTTCK [YIL149C/MLP2], the protein stability index by setting is: (doa10∆) 2.83 ± 0.13; (pdr5∆) 2.79 ± 0.14; (san1∆) 2.93 ± 0.12; (ubr1∆) 3.04 ± 0.077.

NMFELAQQLVGVYKRDN [SMC4]: the protein stability index stood at 1.08 ± 0.11 (doa10∆), 1.61 ± 0.12 (pdr5∆), 1.61 ± 0.16 (san1∆) and 1.37 ± 0.13 (ubr1∆).

For the sequence NMFGDYSNEPFNTNFDD [SNF6], the protein stability index by setting is: (doa10∆) 3.11 ± 0.088; (pdr5∆) 2.78 ± 0.059; (san1∆) 3.06 ± 0.069; (ubr1∆) 2.85 ± 0.045.

NMGMNNMNNGGKELDSL [PGD1]: the protein stability index by setting is: (doa10∆) 3.54 ± 0.28; (pdr5∆) 3.64 ± 0.24; (san1∆) 3.24 ± 0.11; (ubr1∆) 3.24 ± 0.082.

In the case of NMMEHWDYLQLTVAMYI [RPO31], the protein stability index by setting is: (doa10∆) 2.08 ± 0.061; (pdr5∆) 2.2 ± 0.063; (san1∆) 2.4 ± 0.15; (ubr1∆) 1.85 ± 0.063.

In the case of NMVSLRGRNDTLERVHL [GRR1], the protein stability index by setting is: (doa10∆) 2.85 ± 0.086; (pdr5∆) 3.22 ± 0.14; (san1∆) 2.39 ± 0.17; (ubr1∆) 2.73 ± 0.096.

As for NNDKREIQEELERFNKR [SMC1], the protein stability index (doa10∆) was 2.49 ± 0.24, the protein stability index (pdr5∆) turned out to be 3.52 ± 0.13, the protein stability index (san1∆) was 3.4 ± 0.062 and the protein stability index (ubr1∆) was found to be 3.27 ± 0.068.

For NNDQKRQQAYKTAQTLD [YJL041W/NSP1], the protein stability index came out at 3.14 ± 0.071 (doa10∆), 3.17 ± 0.063 (pdr5∆), 3.33 ± 0.053 (san1∆) and 3.23 ± 0.047 (ubr1∆).

As for NNHNDSNRLHPPDIHPN [GRR1], the protein stability index by setting is: (doa10∆) 2.76 ± 0.046; (pdr5∆) 2.82 ± 0.044; (san1∆) 2.8 ± 0.039; (ubr1∆) 2.77 ± 0.035.

As for NNMLYPREDKENNRLLF [RPB9], the protein stability index runs as follows: (doa10∆) 3.13 ± 0.13; (pdr5∆) 3.43 ± 0.16; (san1∆) 2.78 ± 0.1; (ubr1∆) 3.25 ± 0.22.

On to NNNDNDANRNANNIVNI [GRR1], for which the protein stability index was 2.94 ± 0.052 (doa10∆), 3 ± 0.05 (pdr5∆), 2.9 ± 0.036 (san1∆) and 3.04 ± 0.045 (ubr1∆).

For the sequence NNNDNNNSNTVASSTNF [SWI1], the protein stability index by setting is: (doa10∆) 2.92 ± 0.032; (pdr5∆) 3.089 ± 0.03; (san1∆) 2.94 ± 0.031; (ubr1∆) 3.021 ± 0.028.

Regarding NNNETSKPAFSFGAKSD [YJL041W/NSP1], the protein stability index by setting is: (doa10∆) 2.93 ± 0.11; (pdr5∆) 3.1 ± 0.083; (san1∆) 3.15 ± 0.067; (ubr1∆) 3.61 ± 0.29.

Consider NNNNNNNNNSTRPQMPS [GRR1], for which the protein stability index by setting is: (doa10∆) 2.891 ± 0.019; (pdr5∆) 3.041 ± 0.017; (san1∆) 3.062 ± 0.018; (ubr1∆) 3.027 ± 0.018.

Turning to NNNPLQQQSSQNTVPNV [GAL11], the protein stability index came to 2.65 ± 0.046 (doa10∆), 2.86 ± 0.041 (pdr5∆), 3 ± 0.033 (san1∆) and 2.82 ± 0.03 (ubr1∆).

For NNPDMMIQPPQQGQNMS [ROX3], the protein stability index was 2.92 ± 0.12 (pdr5∆), 3.05 ± 0.12 (san1∆) and 3.14 ± 0.14 (ubr1∆).

Regarding NNSAPNNTNNANSSITP [YJL041W/NSP1], the protein stability index reads like this: (doa10∆) 3.01 ± 0.089; (pdr5∆) 2.97 ± 0.11; (san1∆) 2.73 ± 0.11; (ubr1∆) 2.72 ± 0.11.

As to NNSGNDNNNTTNNDSNN [MED2], the protein stability index stood at 3.13 ± 0.035 (doa10∆), 3.27 ± 0.033 (pdr5∆), 3.133 ± 0.023 (san1∆) and 3.092 ± 0.03 (ubr1∆).

Turning to NNTVDPGFDEFQLIDMK [CSI1], the protein stability index is, setting by setting: (doa10∆) 3.18 ± 0.064; (pdr5∆) 3.12 ± 0.062; (san1∆) 3.31 ± 0.038; (ubr1∆) 3.21 ± 0.041.

Regarding NNVAYGKKRFRVVTVDG [SMC4], the protein stability index (doa10∆) worked out at 1.93 ± 0.11, the protein stability index (pdr5∆) is 2.1 ± 0.13, the protein stability index (san1∆) was 1.78 ± 0.13 and the protein stability index (ubr1∆) came out at 1.83 ± 0.069.

Turning to NPEEVEQVAEEAAAAEE [RPS0B], the protein stability index is, setting by setting: (doa10∆) 3.07 ± 0.092; (pdr5∆) 3.03 ± 0.11; (san1∆) 2.95 ± 0.12; (ubr1∆) 3.26 ± 0.071.
